Measured values: the FLAb antibody collection (doi:10.1101/2023.12.08.570889)
Residue numbers refer to the chain shown, from its start.

B1: unnamed (protein)
chain 1: QVQLVQSGAEVKKPGASVKVSCKASGYTFTSSYINWVRQAPGQGLEWMGTINPVTGNTSYAQKFQGRVTMTRDTSISTAYMELSRLRSDDTAVYYCARGGYFDYWGQGTLVTVSS
chain 2: QSALTQPASVSGSPGQSITISCTGTSSDVGSYNYVNWYQQHPGKAPKLMIYGVSKRPSGVSNRFSGSKSGNTASLTISGLQAEDEADYYCGTFAGGSYYGVFGGGTKLTVL
B2: unnamed (protein)
chain 1: B1 chain 1 with S32T
chain 2: B1 chain 2
B3: unnamed (protein)
chain 1: B1 chain 1 with Y33G, G100N, F102M
chain 2: B1 chain 2
B4: unnamed (protein)
chain 1: QVQLVQSGAEVKKPGASVKVSCKASGYIFSNYWIQWVRQAPGQGLEWMGEILPGSGSTEYTENFKDRVTMTRDTSTSTVYMELSSLRSEDTAVYYCARDRFDVASGSSFDFWGQGTLVTVSS
chain 2: DIQMTQSPSSLSASVGDRVTITCGASENIYGALNWYQQKPGKAPKLLIYGATNLADGVPSRFSGSGSGTDFTLTISSLQPEDFATYYCQNVLNTPLTFGQGTKVEIK
B5: unnamed (protein)
chain 1: B4 chain 1 with F101S, D102Y, V103G, A104D, G106S, S107W, S108A, F109L, F111A
chain 2: B4 chain 2
B6: unnamed (protein)
chain 1: QVQLVQSGAEVKKPGASVKVSCKASGYIFSNYWIQWVRQAPGQGLEWMGEILPGSGSTEYTENFKDRVTMTRDTSTSTVYMELSSLRSEDTAVYYCARYYYGDTPFIYFDYWGQGTLVTVSS
chain 2: B4 chain 2
B7: unnamed (protein)
chain 1: B6 chain 1 with Y99L, Y100R, Y101W, F106I
chain 2: B4 chain 2
B8: unnamed (protein)
chain 1: B6 chain 1 with Y100R, Y101W, F106I
chain 2: B4 chain 2
B9: unnamed (protein)
chain 1: B6 chain 1 with Y99L, Y100R, F106T
chain 2: B4 chain 2
B10: unnamed (protein)
chain 1: B6 chain 1 with F106T
chain 2: B4 chain 2
B11: unnamed (protein)
chain 1: B6 chain 1 with Y100R, F106T
chain 2: B4 chain 2
B12: unnamed (protein)
chain 1: B6 chain 1 with Y100R, F106Y
chain 2: B4 chain 2
B13: unnamed (protein)
chain 1: B6 chain 1 with Y100R
chain 2: B4 chain 2
B14: unnamed (protein)
chain 1: B6 chain 1 with Y99L, F106Y
chain 2: B4 chain 2
B15: unnamed (protein)
chain 1: B6 chain 1 with Y100R, Y101W, F106Y
chain 2: B4 chain 2
B16: unnamed (protein)
chain 1: B6 chain 1 with Y99L, Y100R
chain 2: B4 chain 2
B17: unnamed (protein)
chain 1: B6 chain 1 with Y101W, F106I
chain 2: B4 chain 2
B18: unnamed (protein)
chain 1: B6 chain 1 with Y101W, F106Y
chain 2: B4 chain 2
B19: unnamed (protein)
chain 1: B6 chain 1 with Y99F, Y100R, F106I
chain 2: B4 chain 2

Legend:
ACVR2B, Q13705 = test: Kd (SPR)
C5, P01031 = test: Kd (SPR)

Chain of ACVR2B, Q13705 (Q13705 whole entry, looked up): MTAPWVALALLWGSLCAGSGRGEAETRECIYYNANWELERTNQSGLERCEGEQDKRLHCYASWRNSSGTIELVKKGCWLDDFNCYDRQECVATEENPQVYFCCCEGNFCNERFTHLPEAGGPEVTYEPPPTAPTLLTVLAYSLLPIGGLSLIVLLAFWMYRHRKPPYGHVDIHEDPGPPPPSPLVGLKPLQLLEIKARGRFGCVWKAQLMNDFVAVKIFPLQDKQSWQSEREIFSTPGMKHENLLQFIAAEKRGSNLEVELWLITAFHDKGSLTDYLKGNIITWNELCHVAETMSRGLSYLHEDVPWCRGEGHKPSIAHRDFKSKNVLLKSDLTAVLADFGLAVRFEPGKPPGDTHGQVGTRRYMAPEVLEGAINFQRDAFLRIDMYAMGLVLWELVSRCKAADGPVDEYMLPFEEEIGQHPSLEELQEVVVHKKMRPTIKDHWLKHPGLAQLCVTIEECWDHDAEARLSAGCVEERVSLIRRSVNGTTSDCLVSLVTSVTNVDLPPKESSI

Binder | Kd (ACVR2B, Q13705) | Kd (C5, P01031)
B1 | 10.3 nM | 
B2 | 7.87 nM | 
B3 | 0.581 nM | 
B4 |  | 325 nM
B5 |  | 3980 nM
B6 |  | 96.3 nM
B7 |  | 749 nM
B8 |  | 502 nM
B9 |  | 469 nM
B10 |  | 111 nM
B11 |  | 689 nM
B12 |  | 583 nM
B13 |  | 385 nM
B14 |  | 492 nM
B15 |  | 850 nM
B16 |  | 937 nM
B17 |  | 162 nM
B18 |  | 204 nM
B19 |  | 280 nM
